This is an account of results in PMC2428073, “Architecture of a Serine Recombinase-DNA Regulatory Complex” (Molecular Cell, 2008).

“And” between values parts separate entries of the source, which are not always exact repeats. Identical values can stand only once.

Data set [1] concerns the target T1, Sin recombinase (pI9789 Sin) (Staphylococcus aureus (multiresistance …, UniProt P20384 1-202)).
T1 sequence: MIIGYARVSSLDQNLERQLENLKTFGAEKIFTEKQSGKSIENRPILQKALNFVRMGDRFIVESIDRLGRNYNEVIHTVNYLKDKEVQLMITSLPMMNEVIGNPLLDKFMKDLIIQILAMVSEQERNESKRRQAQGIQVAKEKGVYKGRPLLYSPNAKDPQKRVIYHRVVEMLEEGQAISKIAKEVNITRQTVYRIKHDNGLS
In words: X-ray crystallography (MAD/SIRAS, 3.21 A); Crystal structure; protein stored in 25 mM Tris pH 7.5, 0.5 mM EDTA, 400 mM (NH4)2SO4, 20% glycerol; DNA annealed in 100 mM NaCl; crystallization conditions not in the material. The following applies: protein: recombinant; tags: His6 (C-terminal); chain copies: 2; overhanging AT dinucleotides pairing with adjacent duplexes.

Data set [2] concerns the molecule itself. The data set can be described thus: crystal structure; WT Sin cocrystallized with a 29 bp site II DNA duplex (2:1.25 molar ratio), hanging drop, 25 mM TRIS pH 7.5, (NH4)2SO4; two DNA-bound Sin dimers per asymmetric unit; 3.21 Å.

B1: Sin res site II 29 bp duplex (dsDNA)
DNA 1: AACGTATGATTAGGGTGTATATTAATTTATA
DNA 2: TAAATTAATATACACCCTAATCATACGTTTA
modifications: 5-Br-dU and iodine-labelled versions used for phasing
Turning to B1, the binding result in data set [1] is reported as “binds”.

B2: Wild-type His6-tagged pI9789 Sin (enzyme, S. aureus, UniProt P20384 1-202, looked up)
chain: T1 sequence
notes: Sin resolvase (serine recombinase family) encoded by S. aureus plasmid pI9789; the crystal holds 836 Sin residues in four monomers (209 each, with the tag); The last nine residues, which contain the His6 tag, are not seen in the model; In the in vivo synapsis assay WT Sin was expressed from pSA9944 (also with a C-terminal His6 tag) in E. coli DS941; also called WT Sin; Sin resolvase; source: E. …
In the case of B2, in data set [2], the “stoichiometry N” value was 2 and 4.

Broadly, the stoichiometry N is the number of molecules, sites or subunits per partner or assembly.
